This is an account of results in patent publication US20040058416A1 (published 2004).

For experiment [1], the target named is T1, nerve growth factor (NGF) (UniProt P01138 122-241, limits assumed, iodinated (125I) where used as tracer).
T1 construct: also called 125I-NGF; labelled NGF
The experiment in a line: NGF binding to immunoadhesin (competitive displacement, as in Example 4).

The target in experiment [2] is T1, nerve growth factor (NGF). The experiment in a line: saturation binding with 125I-NGF, immunoadhesin.
For experiment [3], the target named is T2, trkA-IgG immunoadhesin (human trkA extracellular domain fused to human IgG-1 Fc) (human, UniProt P04629 33-408).
T2 construct: also called native trkA; chimeras containing trkA extracellular domain; not shown: human IgG-1 hinge-CH2-CH3 (aspartic acid 216 to residue 441)
The experiment in a line: competitive displacement of iodinated NGF from trkA-IgG by unlabelled NT3.

Experiment [4] has as its target T3, trkB-IgG immunoadhesin (human trkB extracellular domain fused to human IgG-1 Fc) (human).
T3 construct: also called chimeras containing trkB
The experiment in a line: competitive displacement of iodinated BDNF from trkB-IgG by unlabelled NT3.

Experiment [5] deals with T3, trkB-IgG immunoadhesin (human trkB …). The experiment in a line: competitive displacement of iodinated BDNF from trkB-IgG by unlabelled BDNF.

T3 sequence (Q16620 32-423): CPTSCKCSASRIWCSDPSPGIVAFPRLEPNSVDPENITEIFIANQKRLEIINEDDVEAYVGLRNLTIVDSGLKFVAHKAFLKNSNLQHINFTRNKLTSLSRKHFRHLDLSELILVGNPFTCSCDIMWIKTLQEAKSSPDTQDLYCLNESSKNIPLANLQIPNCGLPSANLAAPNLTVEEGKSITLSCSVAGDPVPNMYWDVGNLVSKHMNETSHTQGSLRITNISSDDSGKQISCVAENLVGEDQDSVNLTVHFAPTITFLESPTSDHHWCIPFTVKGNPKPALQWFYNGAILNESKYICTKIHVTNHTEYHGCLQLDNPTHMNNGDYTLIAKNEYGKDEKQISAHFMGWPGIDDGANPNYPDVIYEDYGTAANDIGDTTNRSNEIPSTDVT

B1: trkA variant ?4A immunoadhesin (deletion of Val193 to Val282 of trkA) (Fc fusion, not shown: a dimerising Fc or GST)
chain: AAPCPDACCPHGSSGLRCTRDGALDSLHHLPGAENLTELYIENQQHLQHLELRDLRGLGELRNLTIVKSGLRFVAPDAFHFTPRLSRLNLSFNALESLSWKTVQGLSLQELVLSGNPLHCSCALRWLQRWEEEGLGGVPEQKLQCHGQGPLAHMPNASCGSFPASVQLHTAVEMHHWCIPFSVDGQPAPSLRWLFNGSVLNETSFIFTEFLEPAANETVRHGCLRLNQPTHVNNGNYTLLAANPFGQASASIMAAFMDNPFEFNPEDPIPDTNSTSGDPV
notes: 'Mature' variant
As for B1, the “fold reduction of affinity for NGF relative to native trkA” value in experiment [1] is roughly 2 fold.

B2: trkC variant s5A immunoadhesin (trkC Val297 to Thr420 replaced with trkA Ser277 to Val402) (Fc fusion, not shown: a dimerising Fc or GST)
chain: CPANCVCSKTEINCRRPDDGNLFPLLEGQDSGNSNGNANINITDISRNITSIHIENWRSLHTLNAVDMELYTGLQKLTIKNSGLRSIQPRAFAKNPHLRYINLSSNRLTTLSWQLFQTLSLRELQLEQNFFNCSCDIRWMQLWQEQGEAKLNSQNLYCINADGSQLPLFRMNISQCDLPEISVSHVNLTVREGDNAVITCNGSGSPLPDVDWIVTGLQSINTHQTNLNWTNVHAINLTLVNVTSEDNGFTLTCIAENVVGMSNASSVQVNVSFPASVQLHTAVEMHHWCIPFSVDGQPAPSLRWLFNGSVLNETSFIFTEFLEPAANETVRHGCLRLNQPTHVNNGNYTLLAANPFGQASASIMAAFMDNPFEFNPEDPIPDTNSTSGDPV
notes: also called s5A chimera
As for B2, the affinity in experiment [2], expressed as Kd, was 0.0386 nM.

B3: neurotrophin-3 (NT-3) (ligand, UniProt P20783 139-257, looked up)
chain: YAEHKSHRGEYSVCDSESLWVTDKSSAIDIRGHQVTVLGEIKTGNSPVKQYFYETRCKEARPVKNGCRGIDDKHWNSQCKTSQTYVRALTSENNKLVGWRWIRIDTSCVCALSRKIGRT
modifications: radiolabelled (iodinated) where used as tracer
notes: also called labelled NT3; cold NT3
Take B3: the values for the IC50 in experiment [3] and in experiment [4] were 20 nM and 18 nM, respectively.

B4: brain-derived neurotrophic factor (BDNF) (ligand, UniProt P23560 129-247, looked up)
chain: HSDPARRGELSVCDSISEWVTAADKKTAVDMSGGTVTVLEKVPVSKGQLKQYFYETKCNPMGYTKEGCRGIDKRHWNSQCRTTQSYVRALTMDSKKRIGWRFIRIDTSCVCTLTIKRGR
modifications: radiolabelled (iodinated) where used as tracer
notes: also called NT-2; labelled BDNF
Molecule B4 came in with an IC50 in experiment [5] of 0.081 nM.
